Source: PMC4568394, “Differentially expressed seed aging responsive heat shock protein OsHSP18.2 implicates in seed vigor, longevity and improves germination and seedling establishment under abiotic stress” (Frontiers in Plant Science, 2015)

Biological target: the molecule itself
Assay: SEC; Superose 6 column; purified OsHSP18.2 run with molecular weight markers, Ve/Vo against log molecular weight; homooligomer

B1: OsHSP18.2, a class II cytosolic small heat shock protein of rice (6X His tagged recombinant) (natural protein, Oryza sativa indica var. PB-1, UniProt Q5VRY1 1-166, looked up)
chain: MESAMFGLETPLMTALQHLLDIPDGEGGAAGKQGATGGPTRAYVRDARAMAATPADVKDLPGAYAFVVDMPGLKSSDIKVQVEEERLLVISGERRRGGGEEEKEESCKYLRMERRMGKFMRKFVLPDNADVDKISAVCQDGVLTVTVEKLPPPEPKKPKTIEVKVA
notes: OsHSP18.2, class II heat shock protein, Oryza sativa indica var; complete ORF / CDS, 166 aa, predicted 18.2 kDa; the indica PB-1 clone may differ from it; pET23b usually adds a C-terminal His6 tag; copies: 12
- stoichiometry N: ~12 subunits
